Measured values taken from patent US20250152742A1, “COMPOSITIONS AND METHODS FOR NEUROLOGICAL DISEASES” (Trames Bio, Inc., priority 2022, published 2025).
Positions count from the first letter of the chain named. Names and notes keep the numbering of the source.

Tested on: engineered chimeric receptor SEQ ID NO: 33 and its mutants (human α7-nAChR ligand binding domain / human GlyRα1 ion pore domain) in Lenti-X 293T cells
Experiment: YFP fluorescence quenching anion reporter plate reader assay (percent quench, EC50)
Type: cell-based
Details: for YFP fluorescence quenching using CNL001 (percent quench): receptor named in row; for YFP fluorescence quenching using Facinicline, 30 nM fac: ligand Facinicline 30 nM; for YFP fluorescence quenching using Facinicline, 300 nM fac: ligand Facinicline 300 nM; for YFP fluorescence quenching using Facinicline, 30 uM fac: ligand Facinicline 30 uM; for YFP fluorescence quenching using TC-6987, 1 uM tc6987: ligand TC-6987 1 uM; for YFP fluorescence quenching using TC-6987, 10 uM tc6987: ligand TC-6987 10 uM; for YFP fluorescence quenching using TC-6987, 500 uM tc6987: ligand TC-6987 500 uM; for YFP fluorescence quenching using Varenicline, 3 nM var: ligand Varenicline 3 nM; for YFP fluorescence quenching using Varenicline, 30 nM var: ligand Varenicline 30 nM; for YFP fluorescence quenching using Varenicline, 300 nM var: ligand Varenicline 300 nM; for YFP fluorescence quenching using Varenicline, 500 nM var: ligand Varenicline 500 nM; for YFP fluorescence quenching using Varenicline, 1 uM var: ligand Varenicline 1 uM
Procedure, shortened: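 Lenti-X 293T cells co-expressing an anion-quenchable YFP were transiently transfected with receptor DNA, then ligand was added in NaI-substituted buffer (pH 7.2) after 30 min at 37 °C. Fluorescence was read about 2 min; percent quench = mean of last 10 s over 15 s pre-ligand baseline.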

[1] = 1 nM CNL001, first column so headed
[2] = 1 nM CNL001, second column so headed
[3] = 3 nM brd (TC-5619/Bradanicline)
[4] = 10 nM CNL001, first column so headed
[5] = 10 nM CNL001, second column so headed
[6] = 30 nM brd (TC-5619/Bradanicline)
[7] = 50 nM CNL001, first column so headed
[8] = 50 nM CNL001, second column so headed
[9] = 100 nM CNL001, first column so headed
[10] = 100 nM CNL001, second column so headed
[11] = 300 nM brd (TC-5619/Bradanicline)
[12] = 1 uM CNL001, first column so headed
[13] = 1 uM CNL001, second column so headed

B1: CODA326: engineered receptor: L131A in SEQ ID NO: 33 (protein)
chain: MRCSPGGVWLALAASLLHVSLQGEFQRKLYKELVKNYNPLERPVANDSQPLTVYFSLSLLQIMDVDEKNQVLTTNIWLQMSWTDHYLQWNVSEYPGVKTVRFPDGQIWKPDILLYNSADERFDATFHTNVAVNSSGHCQYLPPGIFKSSCPMDLKNFPMDVQTCKLKFGSWSYGGWSLDLQMQEADISGYIPNGEWDLVGIPGKRSERFYECCKEPYPDVTFTVTMRRRMGYYLIQMYIPSLLIVILSWISFWINMDAAPARVGLGITTVLTMTTQSSGSRASLPKVSYVKAIDIWMAVCLLFVFSALLEYAAVNFVSRQHKELLRFRRKRRHHKSPMLNLFQEDEAGEGRFNFSAYGMGPACLQAKDGISVKGANNSNTTNPPPAPSKSPEEMRKLFIQRAKKIDKISRIGFPMAFLIFNMFYWIIYKIVRREDVHNQ
modifications: synthetic sequence of chimeric LGIC
[1]
  YFP fluorescence quenching using CNL001 (percent quench): 76.424%
[2]
  YFP fluorescence quenching using CNL001 (percent quench): 80.567%
[3]
  YFP fluorescence quenching using TC-5619/Bradanicline (percent quench): 72.24%
[4]
  YFP fluorescence quenching using CNL001 (percent quench): 80.284%
[5]
  YFP fluorescence quenching using CNL001 (percent quench): 81.232%
30 nM TC-6683
  YFP fluorescence quenching using TC-6683 (percent quench): −16.28%
[6]
  YFP fluorescence quenching using TC-5619/Bradanicline (percent quench): 77.4%
[7]
  YFP fluorescence quenching using CNL001 (percent quench): 81.575%
[8]
  YFP fluorescence quenching using CNL001 (percent quench): 82.544%
50 nM abt (ABT-126)
  YFP fluorescence quenching using ABT-126 (percent quench): −21.91%
[9]
  YFP fluorescence quenching using CNL001 (percent quench): 81%
[10]
  YFP fluorescence quenching using CNL001 (percent quench): 81.718%
100 nM CNL002
  YFP fluorescence quenching (percent quench): 27.88%
100 nM abt (ABT-126)
  YFP fluorescence quenching using ABT-126 (percent quench): −0.5%
100 nM azd0328
  YFP fluorescence quenching using AZD-0328 (percent quench): 80.39%
300 nM TC-6683
  YFP fluorescence quenching using TC-6683 (percent quench): −11.73%
300 nM abt (ABT-126)
  YFP fluorescence quenching using ABT-126 (percent quench): 34.86%
300 nM azd0328
  YFP fluorescence quenching using AZD-0328 (percent quench): 82.07%
[11]
  YFP fluorescence quenching using TC-5619/Bradanicline (percent quench): 78.02%
[12]
  YFP fluorescence quenching using CNL001 (percent quench): 82.334%
[13]
  YFP fluorescence quenching using CNL001 (percent quench): 81.539%
1 uM CNL002
  YFP fluorescence quenching (percent quench): 73.79%
1 uM abt (ABT-126)
  YFP fluorescence quenching using ABT-126 (percent quench): 56.66%
3 uM TC-6683
  YFP fluorescence quenching using TC-6683 (percent quench): −2.38%
10 uM ach (acetylcholine)
  YFP fluorescence quenching (percent quench): 7.43%
30 uM CNL002
  YFP fluorescence quenching (percent quench): 75.89%
30 uM TC-6683
  YFP fluorescence quenching using TC-6683 (percent quench): −9.77%
30 uM azd0328
  YFP fluorescence quenching using AZD-0328 (percent quench): 82.23%
100 uM TC-6683
  YFP fluorescence quenching using TC-6683 (percent quench): 0.97%
100 uM ach (acetylcholine)
  YFP fluorescence quenching (percent quench): 73.57%
1 mM ach (acetylcholine)
  YFP fluorescence quenching (percent quench): 71.8%
3 mM ach (acetylcholine)
  YFP fluorescence quenching (percent quench): 74.49%
  YFP fluorescence quenching using Facinicline, 30 nM fac: 69.94
  YFP fluorescence quenching using Facinicline, 300 nM fac: 80.07
  YFP fluorescence quenching using Facinicline, 30 uM fac: 78.32
  YFP fluorescence quenching using TC-6987, 1 uM tc6987: 73.37
  YFP fluorescence quenching using TC-6987, 10 uM tc6987: 78.18
  YFP fluorescence quenching using TC-6987, 500 uM tc6987: 75.42
First column
  YFP fluorescence quenching using Varenicline, 3 nM var: −5.939
  YFP fluorescence quenching using Varenicline, 30 nM var: 68.663
  YFP fluorescence quenching using Varenicline, 300 nM var: 79.88
  YFP fluorescence quenching using Varenicline, 500 nM var: 79.311
  YFP fluorescence quenching using Varenicline, 1 uM var: 80.952
Second column
  YFP fluorescence quenching using Varenicline, 3 nM var: −2.294
  YFP fluorescence quenching using Varenicline, 30 nM var: 70.718
  YFP fluorescence quenching using Varenicline, 300 nM var: 79.742
  YFP fluorescence quenching using Varenicline, 500 nM var: 80.029
  YFP fluorescence quenching using Varenicline, 1 uM var: 79.329

B2: CODA330: engineered receptor: L131F in SEQ ID NO: 33 (protein)
chain: B1 chain with A131F
modifications: synthetic sequence of chimeric LGIC
[1]
  YFP fluorescence quenching using CNL001 (percent quench): 76.289%
[2]
  YFP fluorescence quenching using CNL001 (percent quench): 78.896%
1 nM brd (TC-5619/Bradanicline)
  YFP fluorescence quenching using TC-5619/Bradanicline (percent quench): −12.4%
[3]
  YFP fluorescence quenching using TC-5619/Bradanicline (percent quench): 25.12%
[4]
  YFP fluorescence quenching using CNL001 (percent quench): 79.339%
[5]
  YFP fluorescence quenching using CNL001 (percent quench): 80.245%
10 nM brd (TC-5619/Bradanicline)
  YFP fluorescence quenching using TC-5619/Bradanicline (percent quench): 72.19%
30 nM TC-6683
  YFP fluorescence quenching using TC-6683 (percent quench): −22.26%
[6]
  YFP fluorescence quenching using TC-5619/Bradanicline (percent quench): 76.35%
[7]
  YFP fluorescence quenching using CNL001 (percent quench): 80.831%
[8]
  YFP fluorescence quenching using CNL001 (percent quench): 80.605%
50 nM abt (ABT-126)
  YFP fluorescence quenching using ABT-126 (percent quench): −16.22%
[9]
  YFP fluorescence quenching using CNL001 (percent quench): 81%
[10]
  YFP fluorescence quenching using CNL001 (percent quench): 80.663%
100 nM CNL002
  YFP fluorescence quenching (percent quench): −3.76%
100 nM abt (ABT-126)
  YFP fluorescence quenching using ABT-126 (percent quench): −11.89%
100 nM azd0328
  YFP fluorescence quenching using AZD-0328 (percent quench): 27.56%
100 nM brd (TC-5619/Bradanicline)
  YFP fluorescence quenching using TC-5619/Bradanicline (percent quench): 78.94%
300 nM TC-6683
  YFP fluorescence quenching using TC-6683 (percent quench): −18.89%
300 nM abt (ABT-126)
  YFP fluorescence quenching using ABT-126 (percent quench): 39.23%
300 nM azd0328
  YFP fluorescence quenching using AZD-0328 (percent quench): 73.35%
[11]
  YFP fluorescence quenching using TC-5619/Bradanicline (percent quench): 77.06%
[12]
  YFP fluorescence quenching using CNL001 (percent quench): 81.293%
[13]
  YFP fluorescence quenching using CNL001 (percent quench): 81.428%
1 uM CNL002
  YFP fluorescence quenching (percent quench): 68.51%
1 uM abt (ABT-126)
  YFP fluorescence quenching using ABT-126 (percent quench): 66.5%
1 uM brd (TC-5619/Bradanicline)
  YFP fluorescence quenching using TC-5619/Bradanicline (percent quench): 78.61%
3 uM TC-6683
  YFP fluorescence quenching using TC-6683 (percent quench): −9.45%
10 uM ach (acetylcholine)
  YFP fluorescence quenching (percent quench): 11.07%
30 uM CNL002
  YFP fluorescence quenching (percent quench): 77.77%
30 uM TC-6683
  YFP fluorescence quenching using TC-6683 (percent quench): −9.23%
30 uM azd0328
  YFP fluorescence quenching using AZD-0328 (percent quench): 77.14%
100 uM TC-6683
  YFP fluorescence quenching using TC-6683 (percent quench): −10.75%
100 uM ach (acetylcholine)
  YFP fluorescence quenching (percent quench): 43.34%
1 mM ach (acetylcholine)
  YFP fluorescence quenching (percent quench): 77.52%
3 mM ach (acetylcholine)
  YFP fluorescence quenching (percent quench): 74.89%
  YFP fluorescence quenching using Facinicline, 30 nM fac: 2.9
  YFP fluorescence quenching using Facinicline, 300 nM fac: 74.96
  YFP fluorescence quenching using Facinicline, 30 uM fac: 78.31
  YFP fluorescence quenching using TC-6987, 1 uM tc6987: 53.37
  YFP fluorescence quenching using TC-6987, 10 uM tc6987: 74.23
  YFP fluorescence quenching using TC-6987, 500 uM tc6987: 72.25
Ligand Facinicline 10 uM
  YFP fluorescence quenching using Facinicline, 10 uM fac: 81.97
First column
  YFP fluorescence quenching using Varenicline, 3 nM var: −3.016
  YFP fluorescence quenching using Varenicline, 30 nM var: −0.193
  YFP fluorescence quenching using Varenicline, 300 nM var: 6.915
  YFP fluorescence quenching using Varenicline, 500 nM var: 27.593
  YFP fluorescence quenching using Varenicline, 1 uM var: 67.499
Second column
  YFP fluorescence quenching using Varenicline, 3 nM var: −1.452
  YFP fluorescence quenching using Varenicline, 30 nM var: −1.853
  YFP fluorescence quenching using Varenicline, 300 nM var: 6.513
  YFP fluorescence quenching using Varenicline, 500 nM var: 29.863
  YFP fluorescence quenching using Varenicline, 1 uM var: 65.57
